Measurements: publication PMC12692541

System: HalTzlAAA homotrinucleopeptide (synthetic (designed))
Experiment: fluorescence anisotropy
Details: none (unmodified); TB (tris/borate) buffer, 25 °C, 20 min incubation; RNA refolded at 90 °C for 5 min; salt and pH not given in the material

Sequence: GCAGACUUUUAAUCUGC [ASLLys3]
- Kd: 75.3 µM
